{"source": "patent US20170226211A1", "biological_target": "Cynomolgus/Rhesus CTLA-4 (cynomolgus/rhesus)", "experiment": "ELISA, antibody coated, Cynomolgus/Rhesus CTLA-4 titrated"}
{"substance": "Ipilimumab (antibody)", "values": [{"measurement": "EC50 (read off the curve)", "result": 200, "unit": "pM"}]}
